The term Kd denotes the constant that tells how readily two partners part at equilibrium. A lower Kd goes with higher affinity.

Series [1] has as its target T1, human hepcidin-25 (L-peptide) (Homo sapiens) (UniProt P81172).
T1 sequence: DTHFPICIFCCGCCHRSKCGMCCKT
The experiment in a line: SPR. Particulars: L-RNA, 37 C.

The target in series [2] is T2, biotinylated human D-hepcidin-25 (mirror-image peptide) (Homo sapiens) (UniProt P81172).
T2 sequence: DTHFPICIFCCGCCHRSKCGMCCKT
The experiment in a line: SPR. Particulars: 37 C, 1 mM Mg, 1 mM Ca.

[3] abbreviates: 5'-40 kDa PEG, 1 mM Mg, 1 mM Ca.

For “GGCCGGACAGCCGGGGGACACCAUAUACAGACUACGAUACGGCC [238-C4-006-5'-PEG]”, the Kd in series [1] (setting [3]) turned out to be 0.76 nM.
As for “GCACUCGUAAAGUAGAGGGACCCAGUCCGGCGUGAUAGUGCCGAGUGC [223-C5-001 (D-RNA)]”, the Kd in series [2] is 1.2 nM.
“CGUGUGUAAAGUAGAGGACAAUUGUCGGCGUGAUAGUGCCACACG [229-B1-001 (L-RNA)]”: the Kd in series [1] (data not shown) is 1.25 nM.
In the case of “GCUGUGUAAAGUAGAGGACAAUUGUCGGCGUGAUAGUGCCACAGC [229-B1-002 (L-RNA)]”, the Kd in series [1] (1 mM Mg, 1 mM Ca) was 1.47 nM.
Still for that read-out and setting: with “AGGCUCGGACAGCCGGGGGACACCAUAUACAGACUACGAUACGGGCCU [238-C4-001 (L-RNA)]” the figure was 0.9 nM.
For the sequence “GCUGUGUAAAGUAGAGGACAAUUGUCGGCGUGAUAGUGCCACAGC [229-B1-002-5'-PEG]”, in series [1] (setting [3]), the Kd amounted to 1.92 nM.
On the same count and under the same terms, with “GCACUCGUAAAGUAGAGGGACCCAGUCCGGCGUGAUAGUGCCGAGUGC [223-C5-001-5'-PEG]” the figure was 4.44 nM.
In series [1] (1 mM Mg, 1 mM Ca), “GCACUCGUAAAGUAGAGGGACCCAGUCCGGCGUGAUAGUGCCGAGUGC [223-C5-001 (L-RNA)]” came in with a Kd of 2.7 nM.
In series [2], “CGUGUGUAAAGUAGAGGACAAUUGUCGGCGUGAUAGUGCCACACG [229-B1-001 (D-RNA)]” yielded a Kd of 0.5 nM.
As to “GCGCGCGUAUGGGAUUAAGUAAAUGAGGAGUUGGAGGAAGGCGCGC [238-D4-002-5'-PEG]”, in series [1] (setting [3]), the Kd was found to be 0.53 nM.
In the case of “AGCGUGUCGUAUGGGAUUAAGUAAAUGAGGAGUUGGAGGAAGGGCAUGCU [238-D4-001 (L-RNA)]”, the Kd in series [1] (1 mM Mg, 1 mM Ca) was 0.51 nM.
In the case of “GCGCCGUAUGGGAUUAAGUAAAUGAGGAGUUGGAGGAAGGGCGC [238-D4-008-5'-PEG (NOX-H94)]”, the Kd in series [1] (setting [3]) was 0.64 nM.

For the origin of these results see patent US20160257958.
